The test concerns the target rat neuronal nicotinic acetylcholine receptor, α7 subtype (rat) (UniProt Q05941). Briefly: cell-based or functional assay.
Chain of UniProt Q05941 (Q05941 23-502): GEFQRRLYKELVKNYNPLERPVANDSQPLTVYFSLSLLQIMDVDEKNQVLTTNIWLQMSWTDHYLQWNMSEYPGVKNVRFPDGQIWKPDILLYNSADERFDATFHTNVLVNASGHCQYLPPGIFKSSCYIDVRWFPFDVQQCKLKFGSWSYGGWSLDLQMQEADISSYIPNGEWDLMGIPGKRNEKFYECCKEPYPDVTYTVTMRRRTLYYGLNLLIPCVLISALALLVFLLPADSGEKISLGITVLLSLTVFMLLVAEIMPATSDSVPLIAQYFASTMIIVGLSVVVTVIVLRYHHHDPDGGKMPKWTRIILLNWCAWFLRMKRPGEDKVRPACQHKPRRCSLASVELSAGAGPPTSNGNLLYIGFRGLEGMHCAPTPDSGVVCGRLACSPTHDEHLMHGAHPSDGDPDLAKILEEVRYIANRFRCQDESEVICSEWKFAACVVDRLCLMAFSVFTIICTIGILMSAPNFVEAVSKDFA

Take α-conotoxin peptide PnIA: the IC50 of antagonistic activity (oocyte electrophysiology) was determined as 229 nmol.
